For nine molecules, Kd and KD ratio to wild type (KD^T80S/KD^WT) results are on record in publication PMC8177486.

Numbering of substitutions follows the chain as printed. In names and notes the source's numbering stands.

The target in the assay is KEAP1_(312–624), human KEAP1 Kelch repeat domain (human) (UniProt Q14145). Nature of the assay: fluorescence polarisation.

As usually defined, the Kd is a measure of binding affinity in units of concentration. A higher Kd goes with weaker binding.

B1: Nrf2_(34–100) E82A (domain or fragment)
chain: REVFDFSQRRKEYELEKQKKLEKERQEQLQKEQEKAFFAQLQLDEETGAFLPIQPAQHIQSETSGSA
Take B1: the Kd came out at 22 µM.

B2: Nrf2_(34–100) E78A (domain or fragment)
chain: B1 chain with E45A, A49E
In turn, B2 gave a Kd of 0.025 µM.

B3: Nrf2_(34–100) F83A (domain or fragment)
chain: B1 chain with A49E, F50A
Take B3: the Kd was 0.018 µM.

B4: Nrf2_(34–100) E79A (domain or fragment)
chain: B1 chain with E46A, A49E
The molecule B4 yielded a Kd of 1.7 µM.

B5: Nrf2_(34–100) T80A (domain or fragment)
chain: B1 chain with T47A, A49E
In turn, B5 returned a Kd of 26 µM.

B6: Nrf2_(34–100) D77A (domain or fragment)
chain: B1 chain with D44A, A49E
B6: the Kd is 4.4 µM.

B7: Nrf2_(34–100) T80S (domain or fragment)
chain: B1 chain with T47S, A49E
Turning to B7, the KD ratio to wild type (KD^T80S/KD^WT) turned out to be 30.

B8: Nrf2_(34–100) wild type (domain or fragment)
chain: B1 chain with A49E
Regarding B8, the Kd was 0.01 µM.

B9: Nrf2_(1–100) (domain or fragment)
chain: MMDLELPPPGLPSQQDMDLIDILWRQDIDLGVSREVFDFSQRRKEYELEKQKKLEKERQEQLQKEQEKAFFAQLQLDEETGEFLPIQPAQHIQSETSGSA
Molecule B9 came in with a Kd of 0.01 µM.
